T1: PUF4 RNA-binding domain (Saccharomyces cerevisiae, UniProt P25339 537-888)
T1 sequence: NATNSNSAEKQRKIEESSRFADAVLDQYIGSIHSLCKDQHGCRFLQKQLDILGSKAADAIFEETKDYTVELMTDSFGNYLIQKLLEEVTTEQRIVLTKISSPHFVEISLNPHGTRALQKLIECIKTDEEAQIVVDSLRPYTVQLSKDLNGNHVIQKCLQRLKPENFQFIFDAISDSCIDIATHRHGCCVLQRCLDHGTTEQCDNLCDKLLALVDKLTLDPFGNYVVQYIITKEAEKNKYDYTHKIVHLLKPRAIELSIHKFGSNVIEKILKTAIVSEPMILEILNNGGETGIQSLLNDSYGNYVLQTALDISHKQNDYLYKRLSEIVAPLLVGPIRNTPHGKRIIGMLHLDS

B1: Ie_S4_P5E.1_K5.1_C5.1_H5.1_[+1CCCT]_A5.1_F5.1_T5.1 (ssRNA)
RNA: UUUGACAACUGAUCGUUCUUUCUUCCCUGUAUUAUUAUUCUUUCUCGAUCAGUUGUCUUU
B2: Ie_S4_P5E.1_K5.1_C5.1_H5.1_[+2CCTC]_A5.1_F5.1_T5.1 (ssRNA)
RNA: B1 RNA with C25G, G29C
B3: Ie_S4_P5E.1_K5.1_C5.1_H5.1_[+3TCTC]_A5.1_F5.1_T5.1 (ssRNA)
RNA: B1 RNA with C25G, C26U, C27U, U28C, G29U, U30C
B4: Ie_S4_P5E.1_K5.1_C5.1_H5.1_[+2TTCC]_A5.1_F5.1_T5.1 (ssRNA)
RNA: B1 RNA with C25G, C26U, C27U, U28C, G29C
B5: Ie_S4_P4E.1_K4.1_C4.1_H4.1_A4.1_F4.1_[+9CTCT]_T4.1 (ssRNA)
RNA: UUUGACAACUGAUCGUUCUUUCUUGUAUAUUACUCUUUCUUUCUCGAUCAGUUGUCUUU
B6: Ie_S4_P4E.1_K4.1_C4.1_H4.1_A4.1_F4.1_[+9TCTC]_T4.1 (ssRNA)
RNA: B5 RNA with C33U, U34C, C35U, U36C
B7: Ie_S4_P5E.1_K5.1_C5.1_H5.1_[+2TCT]_A5.1_F5.1_T5.1 (ssRNA)
RNA: B5 RNA with A27C, A29U, U30A, A32U, C33A, C35U, U36A
B8: Ie_S4_P5E.1_K5.1_C5.1_H5.1_[+3TTT]_A5.1_F5.1_T5.1 (ssRNA)
RNA: B5 RNA with A27U, A29U, U30A, A32U, C33A, C35U, U36A
B9: Ie_S4_P4E.1_K4.1_C4.1_H4.1_A4.1_F4.1_[+9CC]_T4.1 (ssRNA)
RNA: UUUGACAACUGAUCGUUCUUUCUUGUAUAUUACCUUCUUUCUCGAUCAGUUGUCUUU
B10: Ie_S4_P5E.1_K5.1_C5.1_H5.1_[+3C]_A5.1_F5.1_T5.1 (ssRNA)
RNA: B9 RNA with A27C, U28A, A29U, U31A, A32U, C33U, C34A
B11: Ie_S4_P5E.1_K5.1_C5.1_H5.1_[+3T]_A5.1_F5.1_T5.1 (ssRNA)
RNA: B9 RNA with A27U, U28A, A29U, U31A, A32U, C33U, C34A
B12: Ie_S4_P4E.1_K4.1_C4.1_H4.1_A4.1_F4.1_[+9TC]_T4.1 (ssRNA)
RNA: B9 RNA with C33U
B13: Ie_S4_P5E.1_K5.1_C5.1_H5.1_[+1CCT]_A5.1_F5.1_T5.1 (ssRNA)
RNA: UUUGACAACUGAUCGUUCUUUCUUCCUGUAUUAUUAUUCUUUCUCGAUCAGUUGUCUUU
B14: Ie_S4_P5E.1_K5.1_C5.1_H5.1_[+1CTC]_A5.1_F5.1_T5.1 (ssRNA)
RNA: B13 RNA with C26U, U27C
B15: Ie_S4_P5E.1_K5.1_C5.1_H5.1_[+3CCC]_A5.1_F5.1_T5.1 (ssRNA)
RNA: B13 RNA with C25G, C26U, U27C, G28C, U29C
B16: Ie_S4_P5E.1_K5.1_C5.1_H5.1_[+2TCC]_A5.1_F5.1_T5.1 (ssRNA)
RNA: B13 RNA with C25G, C26U, U27C, G28C
B17: Ie_S4_P5E.1_K5.1_C5.1_H5.1_[+3TCC]_A5.1_F5.1_T5.1 (ssRNA)
RNA: B13 RNA with C25G, C26U, G28C, U29C
B18: Ie_S4_P5E.1_K5.1_C5.1_H5.1_[+1CTT]_A5.1_F5.1_T5.1 (ssRNA)
RNA: B13 RNA with C26U
B19: Ie_S4_P5E.1_K5.1_C5.1_H5.1_[+3TCT]_A5.1_F5.1_T5.1 (ssRNA)
RNA: B13 RNA with C25G, C26U, G28C
B20: Ie_S4_P4E.1_K4.1_C4.1_H4.1_A4.1_F4.1_[+8CCTCT]_T4.1 (ssRNA)
RNA: UUUGACAACUGAUCGUUCUUUCUUGUAUAUUCCUCUAUUCUUUCUCGAUCAGUUGUCUUU
B21: Ie_S4_P4E.1_K4.1_C4.1_H4.1_A4.1_F4.1_[+9CCCTT]_T4.1 (ssRNA)
RNA: B20 RNA with C32A, U34C, A37U
B22: Ie_S4_P5E.1_K5.1_C5.1_H5.1_[+3CTCT]_A5.1_F5.1_T5.1 (ssRNA)
RNA: B1 RNA with C25G, C26U, G29C
B23: Ie_S4_P4E.1_K4.1_C4.1_H4.1_A4.1_F4.1_[+9TCTCT]_T4.1 (ssRNA)
RNA: B20 RNA with C32A, C33U, U34C, C35U, U36C, A37U
B24: Ie_S4_P4E.1_K4.1_C4.1_H4.1_A4.1_F4.1_[+9CTC]_T4.1 (ssRNA)
RNA: UUUGACAACUGAUCGUUCUUUCUUGUAUAUUACUCUUCUUUCUCGAUCAGUUGUCUUU
B25: Ie_S4_P5E.1_K5.1_C5.1_H5.1_[+3CT]_A5.1_F5.1_T5.1 (ssRNA)
RNA: B24 RNA with A27C, C33U, C35A
B26: Ie_S4_P5E.1_K5.1_C5.1_H5.1_[+3TC]_A5.1_F5.1_T5.1 (ssRNA)
RNA: B24 RNA with A27U, U28C, C33U, C35A
B27: Ie_S4_P5E.1_K5.1_C5.1_H5.1_[+3TT]_A5.1_F5.1_T5.1 (ssRNA)
RNA: B24 RNA with A27U, C33U, C35A
B28: Ie_S4_P4E.1_K4.1_C4.1_H4.1_A4.1_F4.1_[+9CTT]_T4.1 (ssRNA)
RNA: B24 RNA with C35U
B29: Ie_S4_P5E.1_K5.1_C5.1_H5.1_[+1TC]_A5.1_F5.1_T5.1 (ssRNA)
RNA: B24 RNA with G25U, U26C, A27G, C33U, C35A
B30: Ie_S4_P4E.1_K4.1_C4.1_H4.1_A4.1_F4.1_[+9TTC]_T4.1 (ssRNA)
RNA: B24 RNA with C33U
B31: Ie_S4_P5E.1_K5.1_C5.1_H5.1_[+1TT]_A5.1_F5.1_T5.1 (ssRNA)
RNA: B24 RNA with G25U, A27G, C33U, C35A
B32: Ib_S2_P3E.1_K3.1_C3.1_H3.1_[A4C]_A3.1_[T5C]_F3.1_T3.1 (ssRNA)
RNA: UUUGAUUAAUAUGAUAUCGUUCUUUCUUGUCCAUAUUCUUUCUCGAUAUCAUAUUAAUCUUU
B33: Ib_S2_P3E.1_K3.1_C3.1_H3.1_[A4T]_A3.1_[T5A]_F3.1_T3.1 (ssRNA)
RNA: B32 RNA with C31U, C32A
B34: Ib_S2_P3E.1_K3.1_C3.1_H3.1_[A4C]_A3.1_[T5A]_F3.1_T3.1 (ssRNA)
RNA: B32 RNA with C32A
B35: Ic_S2_P3E.1_K3.1_C3.1_H3.1_A3.1_[A6G]_F3.1_T3.1 (ssRNA)
RNA: B32 RNA with C31A, C32U, A33G
B36: Ib_S2_P3E.1_K3.1_C3.1_H3.1_[A4G]_A3.1_[A6C]_F3.1_T3.1 (ssRNA)
RNA: B32 RNA with C31G, C32U, A33C
B37: Ie_S4_P4E.1_K4.1_C4.1_H4.1_A4.1_F4.1_[+9C]_T4.1 (ssRNA)
RNA: UUUGACAACUGAUCGUUCUUUCUUGUAUAUUACUUCUUUCUCGAUCAGUUGUCUUU

Changes are numbered by the printed parent chain. Names and notes keep the numbering of the source.

The values that follow come from publication PMC9352680, “A comprehensive thermodynamic model for RNA binding by the Saccharomyces cerevisiae Pumilio protein PUF4”.

What is called Kd is the free concentration of one partner at which half of the binding sites on the other are occupied at equilibrium, for simple one-to-one binding.

The data set deals with T1, PUF4 RNA-binding domain. Briefly: Mg; RNA-MaP; 20 mM Na-HEPES pH 7.4, 30 mM KOAc, 0.75 mM MgCl2, 0.1% Tween-20, 5% glycerol, 0.1 mg/mL BSA, 2 mM DTT; 25 C; 0.0125-409.6 nM protein. Conditions: tags: N-His6-TEV cleaved; C-SNAP kept, Cy3B-labelled; label: tethered on chip by stalled RNA polymerase.
In turn, B1 returned a Kd of 1.21 nM.

For the molecule B2, the Kd amounted to 863 nM.

In turn, B3 came in with a Kd of 40.3 nM.

With B4, the Kd came to 26.4 nM.

As to B5, binding was put at a Kd of 0.777 nM.

As for B6, the Kd came out at 0.36 nM.

The molecule B7 yielded a Kd of 15.3 nM.

In turn, B8 displayed a dissociation constant Kd of 15.6 nM.

Take B9: binding was characterised by a dissociation constant (Kd) of 0.607 nM.

Molecule B10 had an equilibrium dissociation constant (Kd) of 34.1 nM.

Molecule B11 gave a Kd of 41.6 nM.

Molecule B12 gave a dissociation constant (Kd) of 0.647 nM.

As to B13, binding was characterised by a dissociation constant (Kd) of 1.07 nM.

With B14, the Kd amounted to 216 nM.

B15 came in with a Kd of 27.8 nM.

B16 gave a dissociation constant (Kd) of 18.4 nM.

B17 registered a Kd of 9.83 nM.

B18: the Kd was 1.38 nM.

With B19, binding was put at a Kd of 8.87 nM.

With B20, the affinity, expressed as Kd, was 6.66 nM.

The molecule B21 had a Kd of 0.565 nM.

B22: the Kd came to 56.3 nM.

B23: binding was put at a Kd of 0.343 nM.

B24: the Kd was determined as 1.39 nM.

In turn, B25 came in with an equilibrium dissociation constant (Kd) of 10.9 nM.

In the case of B26, the equilibrium dissociation constant (Kd) was 2.68 nM.

In the case of B27, the affinity, expressed as Kd, was 8.89 nM.

The molecule B28 returned a Kd of 1.08 nM.

B29: binding was characterised by a dissociation constant (Kd) of 288 nM.

Turning to B30, the Kd stood at 0.42 nM.

Take B31: binding was characterised by a dissociation constant (Kd) of 1.52 nM.

B32 had a Kd of 581 nM.

The molecule B33 yielded a Kd of 670 nM.

B34: the equilibrium dissociation constant (Kd) worked out at 1360 nM.

Take B35: binding was put at a Kd of 26.3 nM.

In turn, B36 showed a Kd of 107 nM.

Take B37: the affinity, expressed as Kd, was 1.51 nM.
